Where two headings read alike, the source gives them in different places.
Columns and labels:
[1] = biological target: VAPA (mammalian 2-hybrid construct) (UniProt Q9WV55); assay: mammalian 2-hybrid (M2H); conditions: n = 3; for response: parent: est. 170, read off a plot
[2] = biological target: NS1/2^MNoV (strain not told; partner of the VAPA mutants in Fig. 4A and 4C); assay: mammalian 2-hybrid (M2H); conditions: for response: read off a plot
[3] = biological target: the molecule itself; assay: SEC + other: diffusion NMR; VAPA 8-226 in solution; dimer
[4] = biological target: the molecule itself; assay: not stated; VAPA 133-226 in solution; dimeric size, method not given

Sequence of VAPA (mammalian 2-hybrid construct) (Q9WV55 whole entry): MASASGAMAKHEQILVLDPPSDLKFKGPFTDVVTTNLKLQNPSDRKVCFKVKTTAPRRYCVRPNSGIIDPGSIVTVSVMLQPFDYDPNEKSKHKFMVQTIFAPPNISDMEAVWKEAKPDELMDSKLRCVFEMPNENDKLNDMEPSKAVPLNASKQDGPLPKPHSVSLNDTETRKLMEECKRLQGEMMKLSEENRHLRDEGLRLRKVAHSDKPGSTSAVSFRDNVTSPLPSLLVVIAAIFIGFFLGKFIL

Molecule	other: Fold Change [1]	response [1] [%fluc/Rluc]	other: Fold Change ([2]; n = 3)	response ([2]; n = 3, parent: est. 170) [%fluc/Rluc]	also measured
NS1/2^MNoV of strain CR6 (mammalian 2-hybrid construct) D43A	1.35	40			
NS1/2^MNoV of strain CR6 (mammalian 2-hybrid construct) E52K	1.63	30			
NS1/2^MNoV of strain CR6 (mammalian 2-hybrid construct) E42A	1.22	30			
VAPA (mammalian 2-hybrid construct) (from UniProt Q9WV55) K94E			1.2	38	
NS1/2^MNoV of strain CR6 (mammalian 2-hybrid construct) Y47G	1.25	30			
VAPA (mammalian 2-hybrid construct) (from UniProt Q9WV55) K94A			1.74	42	
VAPA (mammalian 2-hybrid construct) (from UniProt Q9WV55) M96A			2.72	63	
NS1/2^MNoV of strain CR6 (mammalian 2-hybrid construct) E42K	1.04	28			
NS1/2^MNoV of strain CR6 (mammalian 2-hybrid construct) E40A	2.13	62			
VAPA (mammalian 2-hybrid construct) (from UniProt Q9WV55) R62A			3.26	80	
VAPA (mammalian 2-hybrid construct) (from UniProt Q9WV55) V61A			7.18	190	
NS1/2^MNoV of strain CR6 (mammalian 2-hybrid construct) M48I	5.16	150			
NS1/2^MNoV of strain CR6 (mammalian 2-hybrid construct) D121G	7.91	180			
NS1/2^MNoV of strain CR6 (mammalian 2-hybrid construct) N46C	7.96	220			
VAPA (mammalian 2-hybrid construct) (from UniProt Q9WV55) R127E			2.53	40	
VAPA (mammalian 2-hybrid construct) (from UniProt Q9WV55) D123A			8.18	110	
VAPA (mammalian 2-hybrid construct) (from UniProt Q9WV55) N64A			3.82	100	
VAPA (mammalian 2-hybrid construct) (from UniProt Q9WV55) K50A			3.11	69	
VAPA (mammalian 2-hybrid construct) (from UniProt Q9WV55) K50E; K52E					other: Fold Change [2]: 1.29; response ([2]; parent: est. 140): 38 %fluc/Rluc

Molecule	other: Fold Change [1]	response [1] [%fluc/Rluc]	other: Fold Change ([2]; n = 3)	response ([2]; n = 3, parent: est. 170) [%fluc/Rluc]	also measured
VAPA (mammalian 2-hybrid construct) (from UniProt Q9WV55) R62E			1.64	34	
NS1/2^MNoV of strain CR6 (mammalian 2-hybrid construct) V45I	5.53	100			
VAPA (mammalian 2-hybrid construct) (from UniProt Q9WV55) V51A			1.66	32	
NS1/2^MNoV of strain CR6 (mammalian 2-hybrid construct) M48A	12.8	190			
VAPA (mammalian 2-hybrid construct) (from UniProt Q9WV55) K125A			1.67	27	
NS1/2^MNoV of strain CR6 (mammalian 2-hybrid construct) E44A	1.78	55			
NS1/2^MNoV of strain CR6 (mammalian 2-hybrid construct) V45A	8.72	250			
NS1/2^MNoV of strain CR6 (mammalian 2-hybrid construct) T49G	1.35	30			
VAPA (mammalian 2-hybrid construct) (from UniProt Q9WV55) K94A; M96A					other: Fold Change [2]: 0.95; response ([2]; parent: est. 140): 27 %fluc/Rluc
NS1/2^MNoV of strain CR6 (mammalian 2-hybrid construct) E54K	3.92	90			
VAPA (mammalian 2-hybrid construct) (from UniProt Q9WV55) K52E			1.38	32	
VAPA (mammalian 2-hybrid construct) (from UniProt Q9WV55) K161E; H163E					other: Fold Change [2]: 2.43; response ([2]; parent: est. 140): 80 %fluc/Rluc
NS1/2^MNoV of strain CR6 (mammalian 2-hybrid construct) T49A	1.55	50			
NS1/2^MNoV of strain CR6 (mammalian 2-hybrid construct) D43K	1.07	30			
VAPA (mammalian 2-hybrid construct) (from UniProt Q9WV55) K125E			1.47	27	
VAPA (mammalian 2-hybrid construct) (from UniProt Q9WV55) C60A			3.9	61	
NS1/2^MNoV of strain CR6 (mammalian 2-hybrid construct) D131G	7.98	180			
VAPA (mammalian 2-hybrid construct) (from UniProt Q9WV55) R127A			3.1	77	
NS1/2^MNoV of strain CR6 (mammalian 2-hybrid construct) N46D	10.3	290			

Molecule	other: Fold Change [1]	response [1] [%fluc/Rluc]	other: Fold Change ([2]; n = 3)	response ([2]; n = 3, parent: est. 170) [%fluc/Rluc]	also measured
VAPA (mammalian 2-hybrid construct) (from UniProt Q9WV55) T54A			1.78	44	
NS1/2^MNoV of strain CR6 (mammalian 2-hybrid construct) M48D	6.37	180			
VAPA (mammalian 2-hybrid construct) (from UniProt Q9WV55) H195E; R197E					other: Fold Change [2]: 3.28; response ([2]; parent: est. 140): 85 %fluc/Rluc
VAPA (mammalian 2-hybrid construct) (from UniProt Q9WV55) K125E; R127E					other: Fold Change [2]: 0.84; response ([2]; parent: est. 140): 23 %fluc/Rluc
VAPA (mammalian 2-hybrid construct) (from UniProt Q9WV55) K50E			2.26	41	
NS1/2^MNoV of strain CR6 (mammalian 2-hybrid construct) M48L	10.8	300			
NS1/2^MNoV of strain CR6 (mammalian 2-hybrid construct) E40K	1.31	45			
NS1/2^MNoV of strain CR6 (mammalian 2-hybrid construct) N46G	10.8	300			
VAPA (mammalian 2-hybrid construct) (from UniProt Q9WV55) T53A			2.94	75	
NS1/2^MNoV of strain CR6 (mammalian 2-hybrid construct) E44K	0.95	30			
VAPA (mammalian 2-hybrid construct) (from UniProt Q9WV55) K52A			1.4	35	
VAPA (mammalian 2-hybrid construct) (from UniProt Q9WV55) R202E; R204E					other: Fold Change [2]: 2.78; response ([2]; parent: est. 140): 74 %fluc/Rluc
NS1/2^MNoV of strain CR6 (mammalian 2-hybrid construct) V45G	8.32	240			
NS1/2^MNoV of strain CR6 (mammalian 2-hybrid construct) Y47A	1.55	45			
NS1/2^MNoV of strain CR6 (mammalian 2-hybrid construct) S41G		40			
NS1/2^MNoV of strain CR6 (mammalian 2-hybrid construct) M48G	11.7	250			
NS1/2^MNoV of strain CR6 (mammalian 2-hybrid construct) H69L	8.14	180			
VAPA MSP domain with linker and coiled-coil domain (8–226) (domain or fragment, murine VAPA, MSP domain with linker and coiled-coil domain, residues 8-226; Natural abundance (unlabeled) in the titrations of 15N NS1; also called VAPA (M8–S226 of VAPA); unlabeled VAPA; source: E. coli, purified) MAKHEQILVLDPPSDLKFKGPFTDVVTTNLKLQNPSDRKVCFKVKTTAPRRYCVRPNSGIIDPGSIVTVSVMLQPFDYDPNEKSKHKFMVQTIFAPPNISDMEAVWKEAKPDELMDSKLRCVFEMPNENDKLNDMEPSKAVPLNASKQDGPLPKPHSVSLNDTETRKLMEECKRLQGEMMKLSEENRHLRDEGLRLRKVAHSDKPGSTSAVSFRDNVTS					stoichiometry N [3]: 2
VAPA fragment (133–226), isolated coiled-coil domain (domain or fragment, murine VAPA, linker and coiled-coil domain, residues 133-226; also called coiled-coil domain (P133–S226 of VAPA); CCD; source: E. coli, purified) PNENDKLNDMEPSKAVPLNASKQDGPLPKPHSVSLNDTETRKLMEECKRLQGEMMKLSEENRHLRDEGLRLRKVAHSDKPGSTSAVSFRDNVTS					stoichiometry N [4]: 2
